Columns and labels:
Experiment in all cases: two-hybrid library CCmax;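 further: natural log of median RNA to DNA barcode read ratio; higher means stronger binding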
4H2698-AA = molecular target: T1, 4H2698-AA; details: mean of both orientations
T1 chain: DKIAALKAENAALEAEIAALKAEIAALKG

4H3395-AA = molecular target: T2, 4H3395-AA; details: mean of both orientations
T2 chain: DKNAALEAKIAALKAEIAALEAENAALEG

4H3009-AA = molecular target: T3, 4H3009-AA; details: mean of both orientations
T3 chain: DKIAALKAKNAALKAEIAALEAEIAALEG

4H2274-AA = molecular target: T4, 4H2274-AA
T4 chain: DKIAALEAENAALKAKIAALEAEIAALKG

4H2865-AA = molecular target: T5, 4H2865-AA; details: mean of both orientations
T5 chain: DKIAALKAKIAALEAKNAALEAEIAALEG

4H2649-AA = molecular target: T6, 4H2649-AA; details: mean of both orientations
T6 chain: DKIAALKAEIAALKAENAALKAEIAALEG

4H745-AA = molecular target: T7, 4H745-AA; details: mean of both orientations
T7 chain: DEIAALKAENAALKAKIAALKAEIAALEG

4H2725-AA = molecular target: T8, 4H2725-AA; details: mean of both orientations
T8 chain: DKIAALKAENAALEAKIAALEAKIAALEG

4H710-AA = molecular target: T9, 4H710-AA; details: mean of both orientations
T9 chain: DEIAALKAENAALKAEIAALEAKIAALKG

4H3410-AA = molecular target: T10, 4H3410-AA; details: mean of both orientations
T10 chain: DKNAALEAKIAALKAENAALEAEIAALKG

4H3016-AA = molecular target: T11, 4H3016-AA; details: mean of both orientations
T11 chain: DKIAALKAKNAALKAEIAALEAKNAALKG

4H3130-AA = molecular target: T12, 4H3130-AA; details: mean of both orientations
T12 chain: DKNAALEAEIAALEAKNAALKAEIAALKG

4H909-AA = molecular target: T13, 4H909-AA; details: mean of both orientations
T13 chain: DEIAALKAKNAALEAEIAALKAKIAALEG

4H2330-AA = molecular target: T14, 4H2330-AA; details: mean of both orientations
T14 chain: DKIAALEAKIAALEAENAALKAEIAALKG

4H310-AA = molecular target: T15, 4H310-AA; details: mean of both orientations
T15 chain: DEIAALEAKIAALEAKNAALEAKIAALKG

4H797-AA = molecular target: T16, 4H797-AA; details: mean of both orientations
T16 chain: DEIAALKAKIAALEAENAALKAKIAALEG

4H2473-AA = molecular target: T17, 4H2473-AA; details: mean of both orientations
T17 chain: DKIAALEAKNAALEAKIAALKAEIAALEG

4H3381-AA = molecular target: T18, 4H3381-AA; details: mean of both orientations
T18 chain: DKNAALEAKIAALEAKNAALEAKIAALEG

4H3753-AA = molecular target: T19, 4H3753-AA; details: mean of both orientations
T19 chain: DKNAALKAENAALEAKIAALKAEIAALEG

4H3120-AA = molecular target: T20, 4H3120-AA; details: mean of both orientations
T20 chain: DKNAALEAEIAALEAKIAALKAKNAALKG

4H930-AA = molecular target: T21, 4H930-AA; details: mean of both orientations
T21 chain: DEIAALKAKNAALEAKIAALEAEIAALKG

4H3697-AA = molecular target: T22, 4H3697-AA; details: mean of both orientations
T22 chain: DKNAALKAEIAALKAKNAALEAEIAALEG

4H891-AA = molecular target: T23, 4H891-AA; details: mean of both orientations
T23 chain: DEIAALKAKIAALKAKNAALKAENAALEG

4H570-AA = molecular target: T24, 4H570-AA; details: mean of both orientations
T24 chain: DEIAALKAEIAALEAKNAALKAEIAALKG

4H2277-AA = molecular target: T25, 4H2277-AA
T25 chain: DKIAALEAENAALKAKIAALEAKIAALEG

4H485-AA = molecular target: T26, 4H485-AA; details: mean of both orientations
T26 chain: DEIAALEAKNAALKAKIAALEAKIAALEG

4H2389-AA = molecular target: T27, 4H2389-AA; details: mean of both orientations
T27 chain: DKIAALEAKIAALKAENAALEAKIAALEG

4H458-AA = molecular target: T28, 4H458-AA; details: mean of both orientations
T28 chain: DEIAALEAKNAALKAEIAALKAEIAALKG

4H850-AA = molecular target: T29, 4H850-AA; details: mean of both orientations
T29 chain: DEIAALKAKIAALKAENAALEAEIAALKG

4H94-AA = molecular target: T30, 4H94-AA; details: mean of both orientations
T30 chain: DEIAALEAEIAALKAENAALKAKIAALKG

4H3590-AA = molecular target: T31, 4H3590-AA; details: mean of both orientations
T31 chain: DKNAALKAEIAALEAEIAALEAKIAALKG

4H3865-AA = molecular target: T32, 4H3865-AA; details: mean of both orientations
T32 chain: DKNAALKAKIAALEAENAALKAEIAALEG

4H2438-AA = molecular target: T33, 4H2438-AA; details: mean of both orientations
T33 chain: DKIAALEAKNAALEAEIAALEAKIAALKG

4H3165-AA = molecular target: T34, 4H3165-AA; details: mean of both orientations
T34 chain: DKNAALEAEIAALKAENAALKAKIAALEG

4H629-AA = molecular target: T35, 4H629-AA; details: mean of both orientations
T35 chain: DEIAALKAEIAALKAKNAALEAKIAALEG

4H536-AA = molecular target: T36, 4H536-AA; details: mean of both orientations
T36 chain: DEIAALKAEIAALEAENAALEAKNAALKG

B1: 4H2274-AA (peptide)
chain: DKIAALEAENAALKAKIAALEAEIAALKG
- interaction score (4H2698-AA): 0.894
- interaction score (4H3395-AA): -1.6
- interaction score (4H3009-AA): 0.108
- interaction score (4H2274-AA): 2.45
- interaction score (4H2865-AA): -1.31
- interaction score (4H2649-AA): -1.69
- interaction score (4H745-AA): 0.497
- interaction score (4H2725-AA): 0.181
- interaction score (4H710-AA): 0.53
- interaction score (4H3410-AA): -1.36
- interaction score (4H3016-AA): -1.01
- interaction score (4H3130-AA): -1.87
- interaction score (4H909-AA): -1.73
- interaction score (4H2330-AA): -1.13
- interaction score (4H310-AA): -1.25
- interaction score (4H797-AA): -1.27
- interaction score (4H2473-AA): -0.485
- interaction score (4H3381-AA): -1.35
- interaction score (4H3753-AA): -1.17
- interaction score (4H3120-AA): -1.33
- interaction score (4H930-AA): -1.05
- interaction score (4H3697-AA): -1.45
- interaction score (4H891-AA): -1.73
- interaction score (4H570-AA): -1.8
- interaction score (4H2277-AA): 0.21
- interaction score (4H485-AA): -0.34
- interaction score (4H2389-AA): -0.987
- interaction score (4H458-AA): 0.0218
- interaction score (4H850-AA): -1.39
- interaction score (4H94-AA): -1.32
- interaction score (4H3590-AA): -0.977
- interaction score (4H3865-AA): -0.926
- interaction score (4H2438-AA): 0.189
- interaction score (4H3165-AA): -1.19
- interaction score (4H629-AA): -1.47
- interaction score (4H536-AA): -1.54

From PMC10397247
